Test system: MS2 coat protein
Assay: apparent KD of MS2 coat protein; designed switch direction (-1 OFF switch, 1 ON switch): -1; higher = weaker reporter binding
Method in brief: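 RNA switches sharing common flanks were transcribed by stalled E. coli RNA polymerase on Illumina chips. A doubling series of SNAP-549-labelled MS2 coat protein, from 0.7 or 1.5 nM to 3 µM, was applied in Tris-HCl pH 7.5 buffer with KCl, MgCl2, BSA, DTT, tRNA and Tween-20. Each step lasted 0.8–1.5 h at the bottom of the series and 10–20 min at the top. Normalised cluster fluorescence was curve-fitted, giving apparent KD as the per-design median over clusters.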

[1] = Eterna round: R95, input ligand: microRNA oligo, concentration not stated
[2] = input ligand: microRNA oligo, concentration not stated
[3] = Eterna round: R95, input ligand: FMN 200 uM
[4] = Eterna round: R95, input ligand: none

| Sequence | apparent KD of MS2 coat protein (input ligand: FMN 200 uM) | apparent KD of MS2 coat protein (input ligand: none) | apparent KD of MS2 coat protein [1] | other results |
| --- | --- | --- | --- | --- |
| GUGCCGCGAGGAUAUACAGACGGGUCCAAAACGUGUCUCGGACUUGAGGAUCACCCAAGUAGAAGGCGUAUCAG [salish99_ex2_r4_619] (Eterna round: R97, puzzle: Exclusion 2) | 27.8 nM | 21.4 nM |  |  |
| GUGCCGCGAGGAUAUACAGACGGGUCCAUAACGUGUCUCGGACUUGAGGAUCACCCAAGUAGAAGGCGUUUCAG [salish99_ex2_r4_623] (Eterna round: R97, puzzle: Exclusion 2) | 19.9 nM | 20.8 nM |  |  |
| GUGCGGUGAGGAUAUACGUAGGUGAAAAUCUGUGUGUUCCUACAUGAGGAUCACCCAUGUAGAAGGCAUGUCAC [LRO-Excl2-14] (puzzle: Exclusion 2) |  |  | 47.6 nM |  |
| GUGCUAUAGGAAGGAUAUACUUCAUUAUUUAGACAUGAGGAUCACCCAUGUAACCUUAUGUAUGUGUAGAAGGUCCAUAGCUUA (Eterna round: R96, puzzle: Exclusion NG 2) | 93.2 nM | 38.8 nM |  | apparent KD of MS2 coat protein [2]: 35.1 nM |
| GUGGAACAUGAGGAUCACCCAUGUGAGGAUAUGUGAGAAGGAUUUGAGAGGGAGAGGGACAGAAGGCACUAGGA [JR_Exclu1_Sub084] (puzzle: Exclusion 1) |  |  | 33.6 nM | apparent KD of MS2 coat protein [3]: 32.7 nM; apparent KD of MS2 coat protein [4]: 41.9 nM |
| GUGGCAUGAGGAUAUCGAGGUUAGUACAUGAGGAUCACCCAUGUUAUCCAGGUGUCGGUUCGAGAAGGCAUGGCAC [LRO-Ex5-13] (puzzle: Exclusion 5) |  |  | 250 nM |  |
| GUGGUACAUGAGGAUCACCCAUGUAAGGAUAUAGUCGGCUGGUGGUCGCGGGUGGUGGCUAGAAGGUGCGUGCG [-19.6, -18.2 kcal, A 19%] (Eterna round: R97, puzzle: Exclusion 1) | 101 nM | 114 nM |  |  |
| GUGUACAGAGGAUAUACUCGAAUCUAGCGAAGCUAGGUUUGACAUGAGGAUCACCCAUGUAGAAGGCUGUACAC [Dot plot directed A] (puzzle: Exclusion 2) |  |  | 13.8 nM |  |
| GUGUACAGAGGAUAUGCUGGAAUCUAGCGAAGCUAGGUUCCACAUGAGGAUCACCCAUGUAGAAGGCUGUACAC [Dot plot directed A v4] (puzzle: Exclusion 2) |  |  | 19.4 nM |  |
| GUGUAGAUAGGAUAUACAUGAGUCUAGCGAAGCUAGAUUCUACAUGAGGAUCACCCAUGUAGAAGGGUCUACAC [Fiskers Ex 2 - 28] (puzzle: Exclusion 2) |  |  | 14.3 nM |  |
| GUGUAGCGAGGAUAUACAUGAGGAUCACCCAUGUGAAUAAGAUAGAAUAAGAUAAAGUGUAGAAGGUGUAGUGU [Excluse me!!! 11 - Jieux - Exclusion 3] (puzzle: Exclusion 3) |  |  | 56 nM | apparent KD of MS2 coat protein [3]: 46.7 nM; apparent KD of MS2 coat protein [4]: 54.5 nM |
| GUGUGCAGAGGAUAUACAUAGGAAUAUAAUAUAAUAUAAUUACAUGAGGAUCACCCAUGUAGAAGGCUGAGUGU [Excluse me!! 18 - Jieux - Exclusion 2] (puzzle: Exclusion 2) |  |  | 24.3 nM |  |
| GUGUGCUGAGGAUAUACACAGGAAUAGAAGAUAAGAUAAUCACAUGAGGAUCACCCAUGUAGAAGGCAGAGUGU [Excluse me!! 17 - Jieux - Exclusion 2] (puzzle: Exclusion 2) |  |  | 13.9 nM |  |
| GUGUGCUGAGGAUAUACAGAGGAAGAUAAUAGAAUAGAAUGACAUGAGGAUCACCCAUGUAGAAGGCAGAGUGU [Excluse me!! 14 - Jieux - Exclusion 2] (puzzle: Exclusion 2) |  |  | 26.3 nM | apparent KD of MS2 coat protein [3]: 40.5 nM; apparent KD of MS2 coat protein [4]: 33.1 nM |
| GUGUUUCGUGUAGGAUAUGUUUGUGGGUCGCGGGCAGAAGGACAUGAGGAUCACCCAUGUUGCGGGUUCGGUUUGUGCGGGCGC [-22, -20 kcal and 14% A] (Eterna round: R96, puzzle: Exclusion NG 1) | 23.6 nM | 22.3 nM |  | apparent KD of MS2 coat protein [2]: 17.1 nM |
| GUUAAACAUGAGGAUCACCCAUGUAAGGAUAUGCUGAGGUAGCGCUGACGUGAAUGAAGCAGAAGGUACAAAUG [Mat - Mod of JL D64] (puzzle: Exclusion 1) |  |  | 93.3 nM | apparent KD of MS2 coat protein [3]: 66.4 nM; apparent KD of MS2 coat protein [4]: 62 nM |
| GUUAACGUAGGAUAUUAGUACAUGCACAUGAGGAUCACCCAUGUUUAGUGGGUCUAGGAAUAAGAAGGGCGAUGAA [EX5 #22] (Eterna round: R97, puzzle: Exclusion 5) | 472 nM | 567 nM |  |  |
| GUUAAGGUAGGAUAUACGAGAAUAUAGGGUAGAUAUAUAACACAUGAGGAUCACCCAUGUAGAAGGACCAAUUG [Mat - Exclusion 2 - Mod of my Tesla design - D57] (puzzle: Exclusion 2) |  |  | 33.1 nM |  |
| GUUAAGGUAGGAUAUACGAUAAGAUAGGGUAGAUAUAUAACACAUGAGGAUCACCCAUGUAGAAGGACCAAUUG [Mat - Exclusion 2 - Mod of my Tesla design - D56] (puzzle: Exclusion 2) |  |  | 29.2 nM |  |
| GUUAAUUGUCAGAUGGGUGACAUGAGGAUCACCCAUGUCACAAGCUUUUUGCUCGUCUUAUAAUUAACCCAUCUGAC [Stov1/11-A3] (Eterna round: R97, puzzle: Sensor, turn-off variant 1) | 13.6 nM | 13.3 nM |  |  |
| GUUACACAUGAGGAUCACCCAUGUAAGGAUAUGCUGCGGUCGCGCUGACGUGACUGCAGCAGAAGGUACACAUG (puzzle: Exclusion 1) |  |  | 86.8 nM |  |
| GUUAGCGUAGGAUAUUAGUACAUGAACAUGAGGAUCACCCAUGUGAGGUGGGUCUUAGAUUAAGAAGGGCGAAGAA [EX5 #31] (Eterna round: R97, puzzle: Exclusion 5) | 387 nM | 447 nM |  |  |
| GUUAGUUAAGGAUAUACUGGGAGCUGCGGCGUCUCGCCGCAACAUGAGGAUCACCCAUGUAGAAGGUGACCAUU [JL ViennaUCT Enbibi mod 5] (puzzle: Exclusion 2) |  |  | 221 nM |  |
| GUUCCGGGAGGAUAUACAUGAGGAUCACCCAUGUUCACCAGCUUUAGCUACGACCUAUGUAGAAGGUCUGGAGA [Eternabot (L1) Solution 36] (Eterna round: R97, puzzle: Exclusion 3) | 46.7 nM | 39.7 nM |  |  |
| GUUCGUGGGCAAGGAUAUCCUACGCUGUUCUGGUUCGUGUCUGUCACAUGAGGAUCACCCAUGUGGGAGAAGGUGCAUUUGGGU [Design 57] (Eterna round: R96, puzzle: Exclusion NG 2) | 18.9 nM | 20.1 nM |  | apparent KD of MS2 coat protein [2]: 15.1 nM |
| GUUCUGUCAGGAUAUCAAUCCGCCUGUGAUACGCAGGCGGCUGAGAAGGGACAUGAGGAUCACCCAUGUAAAGA [jl-ex4-4.23 ViennaUCT mod] (Eterna round: R97, puzzle: Exclusion 4) | 74 nM | 41.2 nM |  |  |
| GUUGUUUAUGUAGGAUAUGCCUGGCGUGCCUAAGCAGAAGGACAUGAGGAUCACCCAUGUAUUGCGGUCUGCGUUCAGAUCGCU [salish99_ExNG1_r4_019] (Eterna round: R96, puzzle: Exclusion NG 1) | 36.8 nM | 23.8 nM |  | apparent KD of MS2 coat protein [2]: 17.2 nM |

Reference: the supplement of paper PMC9170038
